Experiment [1] deals with Jurkat T cells. As to the kind of experiment: FACS and confocal analysis of FITC-labeled TAT fusion proteins added to Jurkat T cells. Particulars: for cells transduced: FITC-labeled protein added to media of Jurkat T cells. In kind it is cell-based. The procedure: To test the ability of TAT-Casp3 proteins to transduce into cells, TAT-Casp3 proteins were conjugated to fluorescein (FITC), then added directly to the media of Jurkat T cells and analyzed by Flow Cytometry (FACS) (FIGS. 9B-C). Both TAT-Casp3WT and TAT-Casp3MUT proteins rancidly transduced into ˜100% of cells, achieving maximum intracellular concentration in less than 20 min. In addition, based on the narrow peak width before and after addition of FITC labeled proteins, individual cells within the population contain near identical intracellular concentrations of TAT-Casp3-FITC protein. […] Thus, TAT-Casp3 proteins readily transduce into 100% of all cells inca rapid and concentration-dependent fashion.
The generation and transduction of TAT fusion proteins shown in FIGS. 9A-E are explained in more detail as follows: FIG. 9A. Diagram depicting HIV cleavage site sequences and domains of TAT fusion proteins. FIGS. 9B-D. FACS kinetic analysis of fluorescein (FITC) labeled TAT-Casp3WT, TAT-Casp3MUT and TAT-HIV Pr proteins added to cells at 0, 20 and 30 min. FIG. 9E. FACS dose analysis of 3, 6, and 12 nM TAT-Casp3WT-FITC protein added to cells at I hr post-addition. Note rapid, concentration-dependent transduction of all FITC labeled protein into ˜100% of cells and near identical intracellular concentration within the population as measured by FACS peak width of control vs. transduced cells.
(§1) 1. […] See Lissy, N. A., et al. (supra). […] See Ezhevsky, S. A., et al. (supra). […] See Xiang, J., et al., (supra). […] See Xiang, J., et al., (supra). […] See Ezhevsky, S. A., et al. (supra).

The test system of experiment [2] is Jurkat T cells. Nature of the experiment: Cytotoxicity of TAT-Casp3 on uninfected Jurkat T cells, viability by Trypan Blue exclusion. To be noted: co-transduced with TAT-HIV Pr. The procedure:
In addition, the ability of TAT-Casp3 protein to induce apoptosis in cells co-transduced with TAT-HIV Pr protein was tested. Jurkat T cells were treated with 100 nM TAT-Casp3WT or TATCasp3MUT proteins alone or in combination with 50 nM TAT-HIV Pr protein and assayed for cell viability 16 hr post-treatment (FIG. 11A). […] See Salvensen, G. S., et al., Henkart, P. A., Cohen, G. M., Woo, M., et al., Enari, M. et al., Liu, X., et al. (supra).
FIG. 11A Cultures of Jurkat T cells were transduced with combinations of TAT-Casp3WT (WT), TAT-Casp3MUT (MUT) and TAT-HIV Protease (Pr) proteins for 16 hr and analyzed for cell viability. […] FIG. 11B Cultures of Jurkat T cells were co-transduced with TAT-Casp3WT (WT), TAT-Casp3MUT (MUT) proteins in combination with TAT-HIV Pr (Pr) protein and analyzed for kinetics of cell viability as indicated.
1. Cell culture-p16(−) Jurkat T cells (ATCC) were grown as described. See Lissy, N. A., et al. (supra). For in vivo substrate cleavage, 1×10^6 cells were transduced with 100 nM TAT-p16, TAT-A-p16, TAT-Casp3MUT and/or 50 nM TAT-HIV Pr proteins for 1, 5 or 8 hr as indicated and analyzed by anti-p16 (Santa Cruz) or anti-Casp3 (Pharmingen) immunoblot analysis. See Ezhevsky, S. A., et al. (supra). For cytotoxicity of TAT-Casp3 on uninfected cells, 1×10^6 cells were transduced with 100 nM TAT-Casp3WT, TAT-Casp3MUT and/or 50 nM TAT-HIV Pr proteins for 16 hr and assayed for viability by Trypan Blue exclusion and/or genomic DNA damage by TUNEL assay (Trevigen). Number of TUNEL positive cells reported as per high-powered microscopic field with four fields per experiment averaged. TAT-Casp3 activity was measured by incubation of 20 μg of whole cell lysate with 50 μM DEVD-AFC and fluorescent AFC formation measured on a FL500 microplate fluorescence reader (Bio-Tek) as described. See Xiang, J., et al., (supra). Cells were preincubated with 1 μg/ml Ritonavir (Abbott Labs) for 1 hr prior to transduction. For cytotoxicity of TAT-Casp3 on infected cells, Jurkat cultures were infected with 100 ng p24 Ag equivalent NLHX HIV-I strain for 7-14 days, assayed microscopically for cytopathic effects, then replated at 1×10^6/ml and transduced with 100 nM of TAT-Casp3WT or TAT-Casp3MUT proteins for 16 hr followed by exclusionary dye viability analysis. Infected cells were pretreated with 1 μg/ml Ritonavir for 24 hr prior to transduction with TAT-Casp3WT protein. See Xiang, J., et al., (supra). For Flow Cytometry (FACS) analysis, fluorescein (FITC) conjugated TAT fusion proteins were added to Jurkat T cell culture media and 1×10^4 cells were analyzed by FACS as described. See Ezhevsky, S. A., et al. (supra).

Experiment [3] has as its system Jurkat T cells. As to the kind of experiment: TUNEL assay for degraded genomic DNA in transduced Jurkat T cells. In kind it is cell-based. As to the method: (§2) Additionally, transduced cultures were tested for degraded genomic DNA by TUNEL assay. See Coates, P. J., Molecular methods for the identification of apoptosis in tissues. J. Histotechnology 17: 261 (1994). […] Activation of TAT-Casp3 was also assayed by its ability to cleave an artificial Caspase-3 substrate. […] See Xiang, J., et al., Bax-induced cell death may not require interleukin 1B-converting enzyme-like proteases. Proc. Natl. Acad. Sci. USA 93: 14550 (1996).
(§3) The HIV Protease activates TAT-Casp3WT protein shown in FIGS. 12A-B are explained in more detail as follows. FIG. 12A. […] Abscissa: TUNEL positive cells per high-powered microscopic field; Ctrl, control addition of PBS to cultures; error bars represent SD. FIG. 12B. […] Ctrl, control PBS addition; ocFAS crosslinking, positive control.
as §1

Experiment [4] relates to caspase-3 activity (DEVD-AFC cleavage). Nature of the experiment: Caspase-3 enzyme assay, cleavage of DEVD-AFC by whole cell lysate of transduced Jurkat T cells. To be noted: 6 hr. In kind it is cell-based. As to the method: as §2, §3, §1
For experiment [5], the system named is Jurkat T cells infected with the NLHX strain of HIV-I. As to the kind of experiment: Cytotoxicity of TAT-Casp3 on HIV infected Jurkat cultures, exclusionary dye viability analysis. In kind it is cell-based.
Source text: To make this determination, Jurkat T cells were infected for 7-14 days with the NLHX strain of HIV-I and examined microscopically for HIV cytopathic effects. See Westervelt, P., et al., Identification of a determinant within the HIV-1 surface envelope glycoprotein critical for productive infection of cultured primary monocytes. Proc. Natl. Acad. Sci USA 88: 3097 (1991). At the start of each transduction experiment approximately 50% of the culture was HIV positive. HIV infected cultures were transduced for 16 hr with 100 nM TAT-Casp3WT or TATCasp3MUT protein and then assayed for cell viability (FIG. 13). […] In addition, we detected both the appearance of cells containing <2N DNA content and cells with condensed nuclei in TAT-Casp3 treated cells.
To determine if TAT-Casp3WT induced apoptosis was dependent on active HIV Protease in the infected cultures, HIV infected cultures were pretreated with 1 μg/ml Ritonavir prior to transduction with 100 nM TAT-Casp3WT protein (FIG. 5). […] In addition, the observed increased survival of Ritonavir treated cells is consistent with increased longevity of protease inhibitor treated HIV infected cells. See Coffin, J. M., et al. (supra).
The specific killing of HIV infected cells shown in FIG. 5 is explained in more detail as follows. Jurkat T cells were infected for 7-14 days with HIV strain NLHX, then transduced with TAT-Casp3WT (WT) or TAT-Casp3MUT (MUT) proteins for 16 hr and assayed for cell viability. […] Ctrl, control addition of PBS to cultures; abscissa, % viability of HIV positive cells in the population at start of transduction; error bars represent SD.
as §1

For experiment [6], the system named is Jurkat T-cells infected by HIV. As to the kind of experiment: Cleavage of transduced p16 fusion proteins in HIV-infected Jurkat T-cells, Western/immunoblot with anti-p16 antibody. In kind it is cell-based. To be noted: after 4, 8 and 12 hours. As to the method:
Purified p16 fusion proteins were individually transduced into Jurkat T-cells infected by HIV. Methods for infecting the Jurkat T-cells with HIV and transducing fusion proteins are described in examples, which follow. After 4, 8 and 12 hours, the cells are analyzed for cleavage of the fusion protein by Western/immunoblot analysis using a commercially available anti-P16 antibody (Santa Cruz). As a control, the p16 cDNA was fused to the pTAT vector described in Example 1 to produce the vector shown in FIG. 3D (no HIV protease cleavage site). That vector encoded a p16 fusion protein fused to TAT that was not cleaved in the infected cells.

A further experiment concerns the target T1, HIV Protease (Human immunodeficiency virus type 1 group M subtype B, UniProt P04585).
T1 construct: PCR cloning the HIV Protease gene from HXB2R HIV strain; 6xHis (from the pTAT vector) (N); made in house; the purified protein was added to Jurkat T cells
Nature of the experiment: In vivo substrate cleavage by co-transduced TAT-HIV Pr in Jurkat T cells, immunoblot. In kind it is cell-based. To be noted: 100 nM substrate, 50 nM TAT-HIV Pr, Jurkat T cells, immunoblot. The procedure:
To assay for in vivo cleavage, p 16(−) Jurkat T cells were transduced with 100 nM TAT-Ap16 or control TAT-p16 protein (no HIV cleavage site) alone or in combination with 50 nM TATHIV Pr fusion protein for 5 hr and analyzed by anti-p16 immunoblot for in vivo cleavage at the HIV A proteolytic cleavage site (FIG. 10A). […] Size analysis of the cleaved TAT-A-p 16 protein was consistent with retention of the residual HIV half site present on the N′ terminus of p 16 (FIG. 10A, see lane 4 vs. 5).
Further, the TAT-Casp3MUT protein was transduced in combination with TAT-HIV Pr protein into cells (FIG. 10B).
The in vivo processing in co-transduced cells shown in FIGS. 10A and 10B is explained in more detail as follows. FIG. 10A. Cultures of p16(−) Jurkat T cells were transduced with TAT-p 16 or TAT-A-p 16 substrate proteins in combination with TATHIV Pr proteins for 5 hr and subjected to anti-p 16 immunoblot analysis. […] WCE, HepG2 whole cell lysate containing wild type endogenous p16; A-p16, cleaved TAT-A-16 product retaining the HIV half site on p16. FIG. 10B. Cultures of Jurkat T cells were transduced with TATCasp3MUT protein (TAT-“D” site-p 17 domain-“A” site-p12 domain) alone or in combination with TAT-HIV Pr (Pr) protein as indicated and immunoblotted with anti-Caspase-3 antibodies specific for the p17 domain. TAT-D-p17-A, cleaved product of TAT-Casp3 containing the N′ terminal HIV A half site.
as §1

“Also recorded” adds a separate entry of the source.

Consider two molecules from US6645501B2, “Anti-pathogen system and methods of use thereof” (Washington University, priority 1997, dated 2003).

B1: TAT-Casp3WT: TAT-D site-p17-A site-p12 modified Caspase-3 fusion protein, Pro domain replaced by TAT transduction domain (protein)
chain: GRKKRRQRRRGYPYDVPDYACTERQANFLGKIWPGISLDNSYKMDYPEMGLCIIINNKNFHKSTGMTSRSGTDVDAANLRETFRNLKYEVRNKNDLTREEIVELMRDVSKEDHSKRSSFVCVLLSHGEEGIIFGTNGPVDLKKITNFFRGDRCRSLTGKPKLFIIQACRGTELDCGIETSQVSQNYPIVQNLQGVDDDMACHKIPVEADFLYAYSTAPGYYSWRNSKDGSWFIQSLCAMLKQYADKLEFMHILTRVNRKVATEFESFSFDATFHAKKQIPCIVSMLTKELYFYH
modifications: left off: small tags and cut ends
notes: TAT-D site-p17-A site-p12 modified Caspase-3 fusion protein, Pro domain replaced by TAT transduction domain
With B1, in the experiment with Jurkat T cells [1] (3, 6 and 12 nM, 1 hr post-addition, at equilibrium), the “dose analysis of protein transduction” value is given as “concentration-dependency”. For the same molecule, the “intracellular localisation by confocal microscopy” value with Jurkat T cells [1] (FITC-labeled protein) was “both cytoplasmic and nuclear compartments”. The molecule also displayed a cells transduced in the experiment on Jurkat T cells [1] of around 100%. In the experiment with Jurkat T cells [2], the “appearance of cells containing <2N DNA content” value was “detected”, the “earliest detection of cellular death post-transduction” value was 4 h and the “kinetic analysis of cell death (shape of curve)” value is recorded as “linear killing curve”. For the same molecule, the “TUNEL positive cells, protein transduced alone” value in the experiment on Jurkat T cells [3] (100 nM TAT-Casp3 or 50 nM TAT-HIV Pr) was “only background levels; also recorded: remained at background levels”. The “TUNEL positive cells, co-transduced with TAT-HIV Pr” value in the experiment with Jurkat T cells [3] (100 nM plus 50 nM TAT-HIV Pr) is reported as “marked increase; also recorded: specific TUNEL positive cells”. The “caspase activity, co-transduced with TAT-HIV Pr” value in experiment [4] (100 nM plus 50 nM TAT-HIV Pr) is reported as “marked increase in caspase activity that was greater than αFAS treatment; also recorded: specific activation of caspase-3 activity”. Further, in experiment [4], the “caspase activity, protein transduced alone” value was “only background levels”. For the same molecule, in experiment [5] (100 nM, 16 hr, cultures approximately 50% HIV positive), the “effect on viability of HIV positive cells” value is on record as “dramatic loss of HIV positive cells; also recorded: efficiently kills a large percentage of HIV positive cells”. Also, the “appearance of cells containing <2N DNA content and cells with condensed nuclei” value in experiment [5] (HIV infected cultures) was “detected”.

B2: TAT-p16: control TAT-p16 fusion protein with no HIV cleavage site (protein)
chain: GRKKRRQRRRGMEPAAGSSMEPSADWLATAAARGRVEEVRALLEAGALPNAPNSYGRRPIQVMMMGSARVAELLLLHGAEPNCADPATLTRPVHDAAREGFLDTLVVLHRAGARLDVRDAWGRLPVDLAEELGHRDVARYLRAAAGGTRGSNHARIDAAEGPSDIPD
modifications: left off: small tags and cut ends
notes: control TAT-p16 fusion protein with no HIV cleavage site
Regarding B2, the “cleavage of the fusion protein in HIV-infected cells” value in experiment [6] is reported as “not cleaved”. In the experiment on Jurkat T cells [1], this molecule displayed a cells transduced of 100%. Further, the “cleavage at the HIV cleavage site when co-transduced with TAT-HIV Pr” value with HIV Protease is “not cleaved”.
